Usually EC50 stands for the concentration at which the effect is half-maximal. As usually defined, the Kd is the concentration at which binding is half-saturated. One may read the koff as the rate constant with which the complex falls apart. Broadly, the kon is the second-order rate constant of association.

Assay [1] has as its target human FAPα on CHO-K1-hFAPα cells (human) (UniProt Q12884). The assay is described as follows: flow cytometry on CHO-K1-hFAPα cells (MFI of PE). On the set-up: unit not given beside the values.
The target in assay [2] is human FAPα-His tag (Sino biological) (human) (UniProt Q12884). The assay is described as follows: competitive ELISA on coated human FAPα; biotinylated mAb alone, no competing Ab (row '0'). (ELISA stands for enzyme-linked immunosorbent assay.)
Assay [3] shares this target. The assay is described as follows: competitive ELISA on coated human FAPα; competitor (detected): FAP-G14-Bio.
The target of assay [4] is mouse FAPα-His protein (mouse) (UniProt P97321). The assay is described as follows: ELISA, coated mouse FAPα-His.
The target in assay [5] is human FAPα-His tag (Sino biological) (human) (UniProt Q12884). The assay is described as follows: competitive ELISA on coated human FAPα; competitor (detected): FAP-I30-Bio.
For assay [6] the target is unchanged. Nature of the assay: competitive ELISA on coated human FAPα; competitor (detected): FAPα (BMK)-Bio.
The target is the same in assay [7]. The assay is described as follows: competitive ELISA on coated human FAPα; competitor (detected): FAP-I38-Bio.
Assay [8] has the same target. The assay is described as follows: competitive ELISA on coated human FAPα; competitor (detected): FAP-J40-Bio.
Assay [9] has the same target. Nature of the assay: competitive ELISA on coated human FAPα; competitor (detected): FAP-G52-Bio.
For assay [10] the target is unchanged. The assay is described as follows: competitive ELISA on coated human FAPα; competitor (detected): FAP-I37-Bio.
The target in assay [11] is human FAPα on CHO-K1-hFAPα cells (human) (UniProt Q12884). The assay is described as follows: flow cytometry on CHO-K1-hFAPα cells. (In flow cytometry, cells or beads pass a laser one at a time.)
Assay [12] concerns the target human FAPα-His tag (Sino biological) (human) (UniProt Q12884). The assay is described as follows: SPR (Biacore T200), mAb captured on Protein A chip, human FAPα-His as analyte. On the technique in general: In SPR one partner is held on a chip, and binding of the other changes the refractive index at the surface.
Assay [13] shares this target. Nature of the assay: ELISA, coated human FAPα-His.

Sequence of human FAPα-His tag (Sino biological) (human) (Q12884 26-760 limits assumed): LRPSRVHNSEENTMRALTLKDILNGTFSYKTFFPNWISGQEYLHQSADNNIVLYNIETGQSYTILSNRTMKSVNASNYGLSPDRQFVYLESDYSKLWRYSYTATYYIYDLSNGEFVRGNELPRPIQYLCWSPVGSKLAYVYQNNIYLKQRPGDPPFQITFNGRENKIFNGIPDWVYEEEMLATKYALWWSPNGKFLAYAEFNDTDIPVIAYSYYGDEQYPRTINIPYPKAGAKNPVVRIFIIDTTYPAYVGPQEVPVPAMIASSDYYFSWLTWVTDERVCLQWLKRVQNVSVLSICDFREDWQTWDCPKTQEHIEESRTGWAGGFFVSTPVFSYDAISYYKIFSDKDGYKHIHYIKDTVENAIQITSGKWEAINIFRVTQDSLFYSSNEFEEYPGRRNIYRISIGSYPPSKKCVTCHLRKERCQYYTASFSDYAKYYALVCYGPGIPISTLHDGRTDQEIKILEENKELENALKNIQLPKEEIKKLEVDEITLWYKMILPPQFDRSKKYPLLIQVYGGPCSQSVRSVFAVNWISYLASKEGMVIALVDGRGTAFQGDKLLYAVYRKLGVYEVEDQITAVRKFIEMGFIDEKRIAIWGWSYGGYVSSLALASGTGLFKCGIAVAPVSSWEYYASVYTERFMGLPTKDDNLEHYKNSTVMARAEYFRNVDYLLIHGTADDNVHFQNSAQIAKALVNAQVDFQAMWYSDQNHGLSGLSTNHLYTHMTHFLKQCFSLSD
Sequence of human FAPα on CHO-K1-hFAPα cells (human) (Q12884 whole entry): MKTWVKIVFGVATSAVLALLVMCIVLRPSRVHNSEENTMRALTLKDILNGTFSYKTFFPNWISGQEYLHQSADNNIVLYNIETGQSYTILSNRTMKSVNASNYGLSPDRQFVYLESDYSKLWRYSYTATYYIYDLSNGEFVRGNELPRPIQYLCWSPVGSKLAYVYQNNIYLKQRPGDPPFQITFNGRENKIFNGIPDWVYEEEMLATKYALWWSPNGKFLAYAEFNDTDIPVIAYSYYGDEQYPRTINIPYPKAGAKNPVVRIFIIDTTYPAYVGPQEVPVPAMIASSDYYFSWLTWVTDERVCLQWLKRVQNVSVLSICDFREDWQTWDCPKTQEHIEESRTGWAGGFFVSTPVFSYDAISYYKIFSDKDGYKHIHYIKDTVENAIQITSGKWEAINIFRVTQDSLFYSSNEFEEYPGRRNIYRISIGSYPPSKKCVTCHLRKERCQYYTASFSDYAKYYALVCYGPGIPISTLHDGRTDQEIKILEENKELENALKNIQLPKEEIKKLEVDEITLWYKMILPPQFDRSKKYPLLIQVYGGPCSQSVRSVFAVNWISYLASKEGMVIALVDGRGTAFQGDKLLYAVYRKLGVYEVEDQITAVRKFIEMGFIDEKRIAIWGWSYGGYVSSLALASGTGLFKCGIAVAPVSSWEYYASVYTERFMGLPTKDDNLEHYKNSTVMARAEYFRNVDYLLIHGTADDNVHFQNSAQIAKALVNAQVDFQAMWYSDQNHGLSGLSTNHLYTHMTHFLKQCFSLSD
Sequence of mouse FAPα-His protein (mouse) (P97321 26-761 limits assumed): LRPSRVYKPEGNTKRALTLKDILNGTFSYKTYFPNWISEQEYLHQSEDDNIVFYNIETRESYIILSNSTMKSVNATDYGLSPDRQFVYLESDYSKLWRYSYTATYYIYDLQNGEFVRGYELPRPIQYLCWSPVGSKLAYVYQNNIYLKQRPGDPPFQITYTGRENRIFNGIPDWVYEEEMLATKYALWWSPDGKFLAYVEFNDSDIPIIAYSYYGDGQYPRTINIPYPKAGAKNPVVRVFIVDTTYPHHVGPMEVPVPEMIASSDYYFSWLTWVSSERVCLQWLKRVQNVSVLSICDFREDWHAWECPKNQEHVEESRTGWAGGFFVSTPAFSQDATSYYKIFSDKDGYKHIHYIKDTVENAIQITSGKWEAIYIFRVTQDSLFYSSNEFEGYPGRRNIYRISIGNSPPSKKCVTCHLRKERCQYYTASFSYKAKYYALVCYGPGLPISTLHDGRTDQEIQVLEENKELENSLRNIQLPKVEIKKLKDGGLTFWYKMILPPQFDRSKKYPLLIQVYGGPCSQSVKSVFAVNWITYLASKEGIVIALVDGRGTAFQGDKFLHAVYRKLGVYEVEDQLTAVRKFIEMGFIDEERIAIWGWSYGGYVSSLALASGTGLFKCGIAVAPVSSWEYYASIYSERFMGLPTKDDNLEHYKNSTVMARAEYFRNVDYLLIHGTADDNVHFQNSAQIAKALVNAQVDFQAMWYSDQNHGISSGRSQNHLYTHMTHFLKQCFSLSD

As for “FAP-4B9 clone from Roche (FAPα-BMK) (antibody)”, the Cmax in [1] is 424. Moreover, the OD 450 nm came to 1.26 OD 450 nm in assay [2]; 0.135 OD 450 nm in assay [3]; 0.155 OD 450 nm in assay [5]; 0.171 OD 450 nm in assay [6]; 0.265 OD 450 nm in [7]; 0.179 OD 450 nm in assay [8]. Also, the results for the OD 450 nm in [9] and in [10] were 0.169 OD 450 nm and 0.23 OD 450 nm, respectively. The concentration giving a half-maximal response (EC50) in assay [4] stood at 10.3 ng/mL; in assay [11], 0.043 ng/mL; in [13] it was 5.55 ng/mL. Also, in assay [12], the Kd was found to be 6.94 nM. The same substance had a koff in assay [12] of 0.000208 s⁻¹. Besides, the kon in assay [12] amounted to 30000 M⁻¹ s⁻¹.

Source of the values: patent US20250297032A1.
